One data set deals with O=C(O)C[C@H](O)C(=O)O. As to the kind of experiment: crystal structure. The class given is biochemical, Leishmania major. The conditions noted are these: [4Fe-4S] cluster active site, same binding mode as wild type.
In the case of LmFH-2-R471A (Leishmania major; R471A), the Michaelis constant (Km) is listed as 4.3 ± 0.2 mM, the maximal velocity (Vmax) amounted to 0.034 µmol/min/mg, the kcat came out at 0.038 ± 0.001 s⁻¹ and the kcat/Km came to 9 ± 1 M⁻¹ s⁻¹.
With LmFH-2-H334A (Leishmania major; H334A), the Km was found to be 4.6 ± 0.1 mM, the Vmax was determined as 52 µmol/min/mg, the catalytic constant (kcat) came to 57.6 ± 0.4 s⁻¹ and the catalytic efficiency (kcat/Km) was 12500 ± 400 M⁻¹ s⁻¹.
For LmFH-2-R421A (Leishmania major; R421A), in that order: 4.1 ± 0.3 mM, 0.13 µmol/min/mg, 0.144 ± 0.002 s⁻¹ and 35 ± 3 M⁻¹ s⁻¹.
In the case of LmFH-2-T467A (Leishmania major; T467A), the Km is 4.4 ± 0.2 mM, the Vmax stood at 0.047 µmol/min/mg, the catalytic constant (kcat) came to 0.052 ± 0.001 s⁻¹ and the kcat/Km came out at 12 ± 1 M⁻¹ s⁻¹.

The target in a further data set is T1, LmFH-2 (cytosolic class I fumarate hydratase) (Leishmania major, UniProt E9AE57).
T1 sequence (E9AE57 1-568): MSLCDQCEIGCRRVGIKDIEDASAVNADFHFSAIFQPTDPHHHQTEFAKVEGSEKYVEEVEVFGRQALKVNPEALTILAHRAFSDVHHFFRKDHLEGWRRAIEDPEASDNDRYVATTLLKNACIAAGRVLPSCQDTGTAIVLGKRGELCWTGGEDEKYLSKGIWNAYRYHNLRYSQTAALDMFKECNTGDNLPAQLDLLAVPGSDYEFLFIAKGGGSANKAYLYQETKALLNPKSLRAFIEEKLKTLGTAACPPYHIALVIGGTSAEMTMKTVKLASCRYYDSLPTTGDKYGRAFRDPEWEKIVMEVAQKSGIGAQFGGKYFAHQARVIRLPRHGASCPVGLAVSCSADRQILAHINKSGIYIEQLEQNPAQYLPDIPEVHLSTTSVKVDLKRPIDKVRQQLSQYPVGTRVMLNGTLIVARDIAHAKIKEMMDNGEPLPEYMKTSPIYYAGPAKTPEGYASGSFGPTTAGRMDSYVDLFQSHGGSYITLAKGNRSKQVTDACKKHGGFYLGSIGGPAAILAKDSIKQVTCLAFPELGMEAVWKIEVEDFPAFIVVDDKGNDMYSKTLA
Kind of data set: crystal structure at […] Å. The class given is biochemical.
Conditions: not given
On to `O=C(O)CCC(=O)O` [succinate], for which the concentration for half-maximal inhibition (IC50) came to 34.2 ± 1.2 mM.

A further data set deals with T2, LmFH-2-R173A (Leishmania major, UniProt E9AE57, R173A).
T2 sequence (E9AE57 1-568 R173A): T1 sequence (E9AE57 1-568)
Assay: not given
Conditions: not given
For `O=C(O)/C=C/C(=O)O` [fumarate], the Michaelis constant (Km) is 2.6 ± 0.6 mM.

The record behind these values is publication PMC7065722 (Biochemistry, 2019).
